From paper PMC4930773, “Cataract-causing mutation S228P promotes βB1-crystallin aggregation and degradation by separating two interacting loops in C-terminal domain” (Protein & Cell, 2016) come the findings set out here.

The assay has as its target T1, wild type βB1-crystallin (human, UniProt P53674 1-252).
T1 construct: human βB1-crystallin (CRYBB1), cloned from a human lens cDNA library into pET28a; no cleavage of the tag is described; also called WT βB1; WT; source: E. coli BL21 (DE3), purified (Ni-NTA, Superdex 200 gel filtration); not shown: His tag, N-terminal, kept
T1 sequence (looked up): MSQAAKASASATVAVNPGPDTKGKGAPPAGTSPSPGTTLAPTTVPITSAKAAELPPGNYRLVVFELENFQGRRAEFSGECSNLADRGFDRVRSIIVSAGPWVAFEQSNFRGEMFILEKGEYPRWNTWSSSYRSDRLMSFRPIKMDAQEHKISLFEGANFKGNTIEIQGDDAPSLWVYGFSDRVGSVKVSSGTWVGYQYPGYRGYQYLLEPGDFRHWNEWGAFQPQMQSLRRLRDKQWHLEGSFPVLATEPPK
As to the kind of experiment: SEC; equal molar homomers mixed and incubated at 37°C, aggregates removed by centrifugation; Superdex 200, buffer A (20 mmol/L sodium phosphate, 150 mmol/L NaCl, 1 mmol/L EDTA, 1 mmol/L DTT, pH 7.0), 30 µmol/L protein; SDS-PAGE of soluble and insoluble fractions alongside. The note with it: both partners purified. For orientation: SEC sorts molecules by how far they enter the pores of the column.

B1: βA3-crystallin (natural protein, human, UniProt P05813 1-215, looked up)
chain: METQAEQQELETLPTTKMAQTNPTPGSLGPWKITIYDQENFQGKRMEFTSSCPNVSERSFDNVRSLKVESGAWIGYEHTSFCGQQFILERGEYPRWDAWSGSNAYHIERLMSFRPICSANHKESKMTIFEKENFIGRQWEISDDYPSLQAMGWFNNEVGSMKIQSGAWVCYQYPGYRGYQYILECDHHGGDYKHWREWGSHAQTSQIQSIRRIQQ
notes: source: E. coli BL21 (DE3), purified (Ni-NTA, Superdex 200 gel filtration)
With B1, the binding result is “binds”.
